Laboratory results reported in article PMC10419456.

Target: LC3 (microtubule-associated protein 1 light chain 3), endogenous (mouse (endogenous in mouse brain and cultured mouse neurons)) (UniProt Q91VR7)
Test: proximity ligation; cultured mouse cortical and cerebellar neurons (wild-type, L1_(687) and L1_(858–863) mutant), without or with L1 antibody 557 (50 µg/mL, 2 h) and without or with tat-LIRWT peptide; fixed, Duolink PLA with mouse L1 antibody C-2 and rabbit LC3 antibody; red spots per cell

fold increase of L1/LC3 proximity ligation spots with L1 antibody 557 against unstimulated neurons: 4 fold
Substance: full-length L1 (neural cell adhesion molecule L1) (from UniProt P11627 20-1260) (natural protein)
